According to patent US20180185450A1 (Sanofi, published 2018):
Numbered stars: 1 amine (or outer) side, 2 acyl side, 3 side chain; on linkers, the order of the positions; unused ones are H or OH. Square brackets hold non-standard residues; d marks the D form. Side chains are listed from the residue outwards. Ends that are not written are not given here. γGlu = O=C(O)[C@H](CCC(=O)[*:2])N[*:1]; X70 = not defined here; x53 = not defined here; x70 = not defined here; x76 = not defined here; Aib = CC(C)(N)C(=O)O

Columns and labels:
human GLP-1 receptor = human GLP-1 receptor (human, UniProt P43220 24-463); test: cell-based or functional assay
human glucagon receptor = human glucagon receptor (human, UniProt P47871 26-477); test: cell-based or functional assay
Sequence of human glucagon receptor (P47871 26-477): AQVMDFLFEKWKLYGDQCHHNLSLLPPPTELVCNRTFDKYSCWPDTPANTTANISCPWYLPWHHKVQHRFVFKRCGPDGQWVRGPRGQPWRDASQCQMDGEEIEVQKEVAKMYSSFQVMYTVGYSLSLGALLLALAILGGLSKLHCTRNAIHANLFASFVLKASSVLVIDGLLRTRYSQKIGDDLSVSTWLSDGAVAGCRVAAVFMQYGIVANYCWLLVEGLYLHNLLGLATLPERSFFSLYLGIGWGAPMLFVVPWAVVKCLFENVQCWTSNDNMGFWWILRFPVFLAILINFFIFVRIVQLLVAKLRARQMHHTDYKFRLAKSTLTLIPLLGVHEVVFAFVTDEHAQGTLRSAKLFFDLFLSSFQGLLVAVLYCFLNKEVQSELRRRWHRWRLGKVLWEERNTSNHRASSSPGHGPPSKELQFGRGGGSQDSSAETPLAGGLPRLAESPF

Binder | EC50 hGLP-1R (cAMP) (human GLP-1 receptor) | EC50 hGlucagon-R (cAMP) (human glucagon receptor)
H[Aib]QGTFTSDLSKQK([γGlu-X70])DEEAARLFIEWLKAGGPSSGAPPPS-NH2 (reading uncertain) [SEQ ID NO: 214] | 4.2 pM | 16 pM
HXHGTFTSDLSKQKEEEAARLFIEWLKAGGPSSGAPPPS (dSer at 2; K(γE-X70) at 14; C-terminal NH2) [SEQ ID NO: 219] | 2.1 pM | 3.7 pM
HXHGTFTSDLSKQKDEEAARLFIEWLKAGGPSSGAPPPS (dSer at 2; K(γE-X70) at 14; C-terminal NH2) [SEQ ID NO: 220] | 2 pM | 2.3 pM
HXQGTFTSDLSKQKEEEAAKLFIEWLKAGGPSSGAPPPS (dSer at 2; K(γE-x53) at 14; C-terminal NH2) [SEQ ID NO: 19] | 1.9 pM | 104 pM
HSHGTFTSDLSKQK([γGlu-x53])ESRRAQDFIEWLKAGGPSSGAPPPS-NH2 (reading uncertain) [SEQ ID NO: 208] | 2 pM | 1.3 pM
H[Aib]QGTFTSDLSKQK([γGlu-γGlu-x53])DEQRAKEFIEWLKSGGPSSGAPPPS-NH2 (reading uncertain) [SEQ ID NO: 207] | 1.1 pM | 1.2 pM
H[Aib]QGTFTSDLSKQK([γGlu-X70])DSRRAQDFIEWLKAGGPSSGAPPPS-NH2 (reading uncertain) [SEQ ID NO: 162] | 3.1 pM | 2.4 pM
H[Aib]HGTFTSDLSKQK([γGlu-X70])EEEAARLFIEWLKAGGPSSGAPPPS-NH2 (reading uncertain) [SEQ ID NO: 217] | 4.3 pM | 2.1 pM
H[Aib]QGTFTSDLSKQK([γGlu-x70])DEEAAKLFIEWLKAGGPSSGAPPPS-NH2 (reading uncertain) [SEQ ID NO: 213] | 2.7 pM | 59.1 pM
H[Aib]QGTFTSDLSKQK([γGlu-X70])DEQRAKDFIEWLKSGGPSSGAPPPS-NH2 (reading uncertain) [SEQ ID NO: 175] | 2.5 pM | 3.1 pM
H[Aib]QGTFTSDLSKQK([γGlu-X70])DEQRAKEFIEWLKAGGPSSGAPPPS-NH2 (reading uncertain) [SEQ ID NO: 152] | 3.2 pM | 2.3 pM
H[Aib]QGTFTSDLSKQK([γGlu-x53])DSQAAQDFIEWLKAGGPSSGAPPPS-NH2 (reading uncertain) [SEQ ID NO: 155] | 2.5 pM | 25.1 pM
H[Aib]QGTFTSDLSKQK([γGlu-X70])DSQAAQDFIEWLKAGGPSSGAPPPS-NH2 (reading uncertain) [SEQ ID NO: 156] | 2.9 pM | 12.5 pM
H[Aib]QGTFTSDLSKQK([γGlu-x70])DEQKAKLFIEWLKSGGPSSGAPPPS-NH2 (reading uncertain) [SEQ ID NO: 206] | 3.2 pM | 12.5 pM
H[Aib]QGTFTSDLSKQK([γGlu-X70])DEQRAKEFIEWLKSGGPSSGAPPPS-NH2 (reading uncertain) [SEQ ID NO: 174] | 2.6 pM | 1.9 pM
H[Aib]HGTFTSDLSKQK([γGlu-γGlu-x53])DEEAARLFIEWLKAGGPSSGAPPPS-NH2 (reading uncertain) [SEQ ID NO: 227] | 1.4 pM | 1.1 pM
H[Aib]QGTFTSDLSKQK([γGlu-x76])ESRAAQLFIEWLKAGGPSSGAPPPS-NH2 (reading uncertain) [SEQ ID NO: 203] | 34.9 pM | 13.1 pM
HXQGTFTSDLSKQKESRRAQLFIEWLKAXGPSSGAPPPS (Aib at 2; K(γE-x70) at 14; dAla at 29; C-terminal NH2) [SEQ ID NO: 205] | 12.3 pM | 5.2 pM
HXQGTFTSDLSKQKDEQRAKDFIEWLKAXGPSSGAPPPS (Aib at 2; K(γE-x70) at 14; dAla at 29; C-terminal NH2) [SEQ ID NO: 199] | 10.1 pM | 7.2 pM
HXQGTFTSDLSKQKDEQRAKLFIEWLKAXGPSSGAPPPS (Aib at 2; K(γE-x70) at 14; dAla at 29; C-terminal NH2) [SEQ ID NO: 200] | 4.6 pM | 4.4 pM
HXQGTFTSDLSKQKDKRRAQLFIEWLKAXGPSSGAPPPS (Aib at 2; K(γE-x70) at 14; dAla at 29; C-terminal NH2) [SEQ ID NO: 210] | 6.7 pM | 3 pM
HXQGTFTSDLSKQKDEQAAKLFIEWLKAXGPSSGAPPPS (Aib at 2; K(γE-x76) at 14; dAla at 29; C-terminal NH2) [SEQ ID NO: 201] | 22.7 pM | 29.6 pM

Binder | EC50 hGLP-1R (cAMP) (human GLP-1 receptor) | EC50 hGlucagon-R (cAMP) (human glucagon receptor)
H[Aib]QGTFTSDLSKQK([γGlu-x70])DSRRAQLFIEWLKAGGPSSGAPPPS-NH2 (reading uncertain) [SEQ ID NO: 198] | 8.2 pM | 2.4 pM
H[Aib]QGTFTSDLSKQK([γGlu-x76])ESRAAQDFIEWLKAGGPSSGAPPPS-NH2 (reading uncertain) [SEQ ID NO: 202] | 26.2 pM | 6.9 pM
HXQGTFTSDLSKQKDSKAAQDFIEWLKAGGPSSGAPPPS (dSer at 2; K(γE-γE-x53) at 14; C-terminal NH2) [SEQ ID NO: 140] | 1.3 pM | 1.5 pM
HXQGTFTSDLSKQKEEEAAKDFIEWLKAGGPSSGAPPPS (dSer at 2; K(γE-x53) at 14; C-terminal NH2) [SEQ ID NO: 17] | 1.7 pM | 93.1 pM
HXQGTFTSDLSKQKDKRAAQLFIEWLKAXGPSSGAPPPS (Aib at 2; K(γE-x76) at 14; dAla at 29; C-terminal NH2) [SEQ ID NO: 212] | 14.1 pM | 6.6 pM
HXQGTFTSDLSKQKEEEAAXDFIEWLKAGGPSSGAPPPS (dSer at 2; K(γE-x53) at 14; Aib at 20; C-terminal NH2) [SEQ ID NO: 18] | 2.6 pM | 152 pM
HXQGTFTSDLSKQKDSRRAQDFIEWLKAXGPSSGAPPPS (dSer at 2; K(γE-X70) at 14; dAla at 29; C-terminal NH2) [SEQ ID NO: 161] | 5 pM | 2.4 pM
HXQGTFTSDLSKQKDSKRAXDFIEWLKAGGPSSGAPPPS (dSer at 2; K(γE-x70) at 14; Aib at 20; C-terminal NH2) [SEQ ID NO: 196] | 7.8 pM | 1.8 pM
HXQGTFTSDLSKQKESEAAQDFIEWLKAGGPSSGAPPPS (dSer at 2; K(γE-x53) at 14; C-terminal NH2) [SEQ ID NO: 20] | 3.8 pM | 104 pM
HXQGTFTSDLSKQKESLAAQDFIEWLKAGGPSSGAPPPS (dSer at 2; K(γE-x53) at 14; C-terminal NH2) [SEQ ID NO: 150] | 6 pM | 35.5 pM
HXQGTFTSDLSKQKEEEAAQDFIEWLKAGGPSSGAPPPS (dSer at 2; K(γE-x53) at 14; C-terminal NH2) [SEQ ID NO: 16] | 2.8 pM | 117 pM
HXQGTFTSDLSKQKDSKAAQDFIEWLKSGGPSSGAPPPS (dSer at 2; K(γE-x53) at 14; C-terminal NH2) [SEQ ID NO: 173] | 5.7 pM | 5.9 pM
HXQGTFTSDLSKQKESEAAQLFIEWLKAGGPSSGAPPPS (dSer at 2; K(γE-x53) at 14; C-terminal NH2) [SEQ ID NO: 21] | 3.8 pM | 144 pM
HXQGTFTSDLSKQKDEEAARLFIEWLKAGGPSSGAPPPS (dSer at 2; K(γE-x53) at 14; C-terminal NH2) [SEQ ID NO: 221] | 1.5 pM | 9.2 pM
HXQGTFTSDLSKQKDEEAARLFIEWLKAGGPSSGAPPPS (dSer at 2; K(γE-X70) at 14; C-terminal NH2) [SEQ ID NO: 222] | 1.8 pM | 2.9 pM
HXQGTFTSDLSKQKDSKAAQDFIEWLKAGGPSSGAPPPS (dSer at 2; K(γE-X95) at 14; C-terminal NH2) [SEQ ID NO: 142] | 4.1 pM | 2.1 pM
HXQGTFTSDLSKQKDKRAAQLFIEWLKAXGPSSGAPPPS (Aib at 2; K(γE-x70) at 14; dAla at 29; C-terminal NH2) [SEQ ID NO: 211] | 15.5 pM | 26.4 pM
HXQGTFTSDLSKQKESXAAQLFIEWLKAGGPSSGAPPPS (dSer at 2; K(γE-x53) at 14; Aib at 17; C-terminal NH2) [SEQ ID NO: 15] | 6.6 pM | 176 pM
HXQGTFTSDLSKQKDKRRAQDFIEWLKAXGPSSGAPPPS (Aib at 2; K(γE-x70) at 14; dAla at 29; C-terminal NH2) [SEQ ID NO: 209] | 5.4 pM | 1.9 pM
HXQGTFTSDLSKQKESRAAQLFIEWLKAXGPSSGAPPPS (Aib at 2; K(γE-x76) at 14; dAla at 29; C-terminal NH2) [SEQ ID NO: 204] | 34.1 pM | 12.5 pM
H[Aib]QGTFTSDLSKQK([γGlu-γGlu-x53])DEEAARLFIEWLKAGGPSSGAPPPS-NH2 (reading uncertain) [SEQ ID NO: 226] | 1.4 pM | 19.1 pM
